First the molecules themselves.
B1: PulMCTD (C-terminal domain of PulM, residues 79-161) (domain or fragment, Klebsiella oxytoca)
chain: SPEEPSTVIMREAARHGLTIVRLQPQGSRLSLTVQPADFQALMAWLDALGQAGMTTATLAVTAVAQQPGWVTVNTLVLERSDEK
B2: PulLCTD (C-terminal domain of PulL, residues 312-398) (domain or fragment, Klebsiella oxytoca)
chain: SNAGARPALISRLGALQQIIDDTPGIRLRTLSFDAARNALQLEISAVSSQALEQFSQRARARFRVQTGEMKPRADGIEGRLTLEGNDA

For data set [1], the target named is B2. Briefly: native MS.
Data set [2] deals with the molecule itself.
Data set [3] addresses B1. Nature of the data set: NMR titration.
The data set “AUC + other: NMR” concerns the molecule itself. Nature of the data set: AUC + other: NMR.

This note sets out measurements from article doi:10.1101/2022.07.16.500195 (bioRxiv, 2022).

Like-named read-outs stand apart in the source and are kept apart here.

What is called stoichiometry N is a count of units in the complex or per binding partner. Take B1: in data set [1], the binding result is “binds”. Besides, the “stoichiometry N” value in data set [2] came out at 2.
On to B2, for which the entries for the “stoichiometry N” value (in data set [3]; in the data set “AUC + other: NMR”) were 1 PulLCTD per PulMCTD and 2, respectively.
